Three molecules from PMC9149338 (Cellular and Molecular Immunology, 2022) can be followed below.

The target of the experiment is GST-importin α5 (aa 400–538) (human, UniProt P52294 400-538). Nature of the experiment: SPR. In general terms: SPR reads the build-up and loss of mass on a sensor chip optically.

In general, Kd refers to the equilibrium constant for the complex coming apart.

Chain of GST-importin α5 (aa 400–538) (P52294 400-538): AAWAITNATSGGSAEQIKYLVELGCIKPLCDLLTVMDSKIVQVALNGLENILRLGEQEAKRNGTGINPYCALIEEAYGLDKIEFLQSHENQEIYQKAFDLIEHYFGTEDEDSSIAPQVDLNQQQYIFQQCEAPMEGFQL

As to HLQLKEQKNA [STAT1 NLS peptide], the binding result is on record as “binds”.
KAKTEEKDLKKLKKQEKEEKDFRKKFK [ADAP NLS2 peptide]: the Kd is 2.38 nM.
Same read-out and setting: the figure for KEREKKREKEEKKRLELEKKEQKEKEKKEQEIKKK [ADAP NLS1 peptide] is 2.67 nM.
